Results: publication PMC10127594

target: T1, Gac (Borrelia burgdorferi sensu stricto B31) (UniProt O51396); experiment: competition; conditions: EMSA: 50 mM Tris-HCl (pH not stated), 25 mM KCl, 10% glycerol, 0.01% Tween 20, 100 nM DTT, 1 mM PMSF; 15 min, room temperature; 10 nM probe, 25 nM Gac
T1 sequence: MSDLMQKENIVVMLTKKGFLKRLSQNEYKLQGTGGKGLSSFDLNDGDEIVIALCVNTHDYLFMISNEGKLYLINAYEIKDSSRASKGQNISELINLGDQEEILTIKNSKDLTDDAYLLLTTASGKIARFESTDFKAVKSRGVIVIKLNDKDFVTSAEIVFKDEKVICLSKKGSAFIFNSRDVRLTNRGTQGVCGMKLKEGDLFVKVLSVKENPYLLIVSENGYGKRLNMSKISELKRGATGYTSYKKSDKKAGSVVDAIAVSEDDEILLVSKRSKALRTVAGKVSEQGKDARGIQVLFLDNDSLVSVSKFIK

Substance	binding signal (fold reduction)
empty pCR2.1 amplicon	< 1.3
B31 ospC operator/promoter	2.6
Ip89 ospC operator/promoter	2
GTATTAAGTTATATTAATATAAAAGGAGAATATATT (double strand) [ospAB competitor]	< 1.3
AACAGGCAAAAGGATTTGCCAAAGTCAGAAATT (double strand) [flaB competitor]	< 1.3
